As a reminder, the Kd is the equilibrium constant for the complex coming apart. Low readings indicate higher affinity, high ones lower affinity.

In this data set the test system is SerRS-Avi-biotin (human cytosolic seryl-tRNA synthetase) (Homo sapiens). Put plainly: SPR. For orientation: SPR reads the build-up and loss of mass on a sensor chip optically.

In turn, WT tRNASer displayed a Kd of 3.3 nM.

The values are drawn from PMC5648036.
